Results published in PMC5874046, “Interaction of HuDA and PABP at 5'UTR of mouse insulin2 regulates insulin biosynthesis”.

Key:
His-HuD D [1] = molecular target: T1, His-HuD D (mouse, UniProt Q61701-10 1-371); assay: competition; competitor; EMSA: 6% native PAGE, 0.5x TBE, 4°C (binding buffer as in cited work); biotin pull-down: 5 mM Tris pH 7.5, 15 mM KCl, 5 mM MgCl2, 0.25 mM DTT, 10% glycerol, 20; settings: protein: recombinant, tags: His
His-HuD A [2] = molecular target: T2, His-HuD A (mouse, UniProt Q61701 1-385); assay: competition; competitor against labeled Ins2L; EMSA: 6% native PAGE, 0.5x TBE, 4°C (binding buffer as in cited work); biotin pull-down: 5 mM Tris pH 7.5, 15 mM KCl, 5 mM MgCl2, 0.25 mM DTT, 10% glycerol, 20; settings: protein: recombinant, tags: His
T2 sequence (Q61701 whole entry): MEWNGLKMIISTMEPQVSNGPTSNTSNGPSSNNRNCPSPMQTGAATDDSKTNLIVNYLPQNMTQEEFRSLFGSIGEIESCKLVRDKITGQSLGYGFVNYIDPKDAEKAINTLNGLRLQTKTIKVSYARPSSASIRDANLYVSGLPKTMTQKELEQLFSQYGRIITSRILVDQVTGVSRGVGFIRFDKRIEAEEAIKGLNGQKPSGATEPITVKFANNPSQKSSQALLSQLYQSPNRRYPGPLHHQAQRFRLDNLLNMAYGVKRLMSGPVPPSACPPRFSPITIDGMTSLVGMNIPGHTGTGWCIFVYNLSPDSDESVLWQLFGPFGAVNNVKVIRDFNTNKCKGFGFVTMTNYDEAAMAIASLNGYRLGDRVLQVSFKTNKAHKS

His-HuD D [3] = molecular target: T1, His-HuD D; assay: competition; competitor; similar to L at low excess, differential at high excess; EMSA: 6% native PAGE, 0.5x TBE, 4°C (binding buffer as in cited work); biotin pull-down: 5 mM Tris pH 7.5, 15 mM KCl, 5 mM MgCl2, 0.25 mM DTT, 10% glycerol, 20; settings: protein: recombinant; tags: His; m-fold predicted structure
His-HuD A [4] = molecular target: T2, His-HuD A; assay: competition; competitor against labeled Ins2L; similar to L at low excess, differential at high excess; EMSA: 6% native PAGE, 0.5x TBE, 4°C (binding buffer as in cited work); biotin pull-down: 5 mM Tris pH 7.5, 15 mM KCl, 5 mM MgCl2, 0.25 mM DTT, 10% glycerol, 20; settings: protein: recombinant; tags: His; m-fold predicted structure
His-HuD D [5] = molecular target: T1, His-HuD D; assay: EMSA; EMSA: 6% native PAGE, 0.5x TBE, 4°C (binding buffer as in cited work); biotin pull-down: 5 mM Tris pH 7.5, 15 mM KCl, 5 mM MgCl2, 0.25 mM DTT, 10% glycerol, 20; settings: protein: recombinant; tags: His; label: radiolabel (probe); m-fold predicted structure
GST-HuD B = GST-HuD B (mouse, UniProt Q61701-4 1-380); assay: as above; settings: protein: recombinant; tags: GST; label: radiolabel (probe); m-fold predicted structure
GST-HuD B, sequence (Q61701 other isoform, or with tags, fused parts or gaps): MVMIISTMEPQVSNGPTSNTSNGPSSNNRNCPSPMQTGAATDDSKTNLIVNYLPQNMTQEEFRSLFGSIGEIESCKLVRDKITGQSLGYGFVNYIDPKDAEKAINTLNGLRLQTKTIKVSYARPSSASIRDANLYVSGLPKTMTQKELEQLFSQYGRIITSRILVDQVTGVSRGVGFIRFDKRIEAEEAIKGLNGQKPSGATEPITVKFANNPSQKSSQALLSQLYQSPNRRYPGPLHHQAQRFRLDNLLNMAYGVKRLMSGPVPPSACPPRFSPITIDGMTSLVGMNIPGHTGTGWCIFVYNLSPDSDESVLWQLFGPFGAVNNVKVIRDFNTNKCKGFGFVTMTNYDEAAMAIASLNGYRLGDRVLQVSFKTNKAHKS

His-HuD A [6] = molecular target: T2, His-HuD A; assay: as above; settings: protein: recombinant; tags: His; label: radiolabel (probe); m-fold predicted structure
His-HuD B = His-HuD B (mouse, UniProt Q61701-4 1-380); assay: as above; settings: protein: recombinant; tags: His; label: radiolabel (probe); m-fold predicted structure

T1 sequence (Q61701 other isoform, or with tags, fused parts or gaps): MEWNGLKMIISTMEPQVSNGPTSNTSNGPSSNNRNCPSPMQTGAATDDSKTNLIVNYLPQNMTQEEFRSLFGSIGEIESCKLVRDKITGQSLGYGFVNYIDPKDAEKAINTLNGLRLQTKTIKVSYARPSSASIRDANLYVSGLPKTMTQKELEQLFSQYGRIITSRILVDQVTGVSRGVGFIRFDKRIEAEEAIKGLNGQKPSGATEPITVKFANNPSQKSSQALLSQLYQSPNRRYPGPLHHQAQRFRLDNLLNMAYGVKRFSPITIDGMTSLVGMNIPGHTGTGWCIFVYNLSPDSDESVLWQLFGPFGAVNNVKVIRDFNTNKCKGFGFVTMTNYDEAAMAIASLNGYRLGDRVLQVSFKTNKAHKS

GGGUACAAUCAAAAACCAUCAGCAA (ssRNA) [L2]: binds (His-HuD D [1]; label: radiolabel (probe)); binds (His-HuD A [2]; label: radiolabel (probe)).

B1: Ins2S 5'UTR (S) (structured_RNA)
RNA: GGGAGCCCUAAGUGAUCCGCUACAAUCAAAAACCAUCAGCAAGCAGGAAGGUUAUUGUUUCAAC
B1: binds (His-HuD D [3]); binds (His-HuD A [4]).

B2: Ins2L 5'UTR (L) (structured_RNA)
RNA: GGGAGCCCUAAGUGAUCCGCUACAAUCAAAAACCAUCAGCAAGCAGGAAGCCUAUCUUCCAGGUUAUUGUUUCAAC
B2: binds (His-HuD D [5]); no binding (GST-HuD B); binds (His-HuD A [6]). B2: no binding (His-HuD B).

GGGUCUUCCAGGUUAUUGUUUCAAC (ssRNA) [L4]: binds (His-HuD D [1]); binds (His-HuD A [2]).
